Data from patent US6468567B1, “Malt beverage having stabilized flavor and methods of production thereof” (Cerveceria Polar, C.A., priority 1997, dated 2002).

What was measured:
[1] = Substrate specificity assays of the purified reductase enzymes; format: biochemical; settings: FIG. 10
Protocol: The activities of the isolated and purified oxoaldehyde reductase enzymes were determined in a mixture containing 9 mM methylglyoxal, 0.1 mM NADPH, 25 mM potassium phosphate buffer (pH 7.0), and the fraction enzyme (8 μg approximately) in a total volume of 0.5 ml. The reaction was monitored at 340 nm. All assays were performed at 25° C. One unit of the enzyme was defined as the amount of enzyme that the catalyzes the oxidation of 1 μmol of NADPH per minute at 25° C.
Various carbonyl compounds were assayed as substrates for the isolated and purified reductase enzymes.

[2] = Effect of the reductases on the LC18 peak in fresh beer (HPLC); format: biochemical; settings: 50 units/ml enzyme, 25° C., 30 minutes, FIG. 11
Protocol: Analysis of the chemical indices LC18 and 5-HMF was performed by liquid chromatography, using a Waters HPLC system which consisted of a 600 pump, Wisp 717 autosampler, Millennium 2010 Chromatography Manager v 2.1. Separation was carried out in an Aminex HPX-87H column 300×7.8 mm, 9 μm held at 55° C. Elution was monitored with a Waters 991 Photodiode Array Detector (200 nm-300 nm) and the quantitation of 5-HMF and LC18 peak was carried out at 283 nm. For analysis, 50 μl of degassed beer was injected in duplicate samples and eluted with 0.05 M H2SO4 over 25 min at a flow rate of 1.0 ml/min. Quantitation of 5-HMF was performed using an external calibration curve of the respective pure compounds (Sigma; Saint Louis, Mo.).
In order to determine the effect of both reductases on the intensity of the LC18 peak, a 1 ml mixture of fresh beer, 25 mM potassium phosphate buffer (pH 7.0), 0.1 mM NADPH and the required volume of enzyme to obtain a final concentration in the solution of 50 units/ml of enzyme was incubated at 25° C. for 30 minutes. After the incubation, the treated beer was analyzed on an Aminex HPX-87H column connected to a Waters HPLC System under the conditions described above.

B1: Reductase 1: NADPH-dependent oxidoreductase purified from brewer's yeast; first 30 residues show 100% homology to Old Yellow Enzyme isozyme OYE2 (protein, UniProt Q03558 2-400, looked up)
NADPH dehydrogenase 2: PFVKDFKPQALGDTNLFKPIKIGNNELLHRAVIPPLTRMRAQHPGNIPNRDWAVEYYAQRAQRPGTLIITEGTFPSPQSGGYDNAPGIWSEEQIKEWTKIFKAIHENKSFAWVQLWVLGWAAFPDTLARDGLRYDSASDNVYMNAEQEEKAKKANNPQHSITKDEIKQYVKEYVQAAKNSIAAGADGVEIHSANGYLLNQFLDPHSNNRTDEYGGSIENRARFTLEVVDAVVDAIGPEKVGLRLSPYGVFNSMSGGAETGIVAQYAYVLGELERRAKAGKRLAFVHLVEPRVTNPFLTEGEGEYNGGSNKFAYSIWKGPIIRAGNFALHPEVVREEVKDPRTLIGYGRFFISNPDLVDRLEKGLPLNKYDRDTFYKMSAEGYIDYPTYEEALKLGWDKN
activity on pyruvate [1]: neither enzyme showed any appreciable activity | effect on the assayed aldoses (glucose, galactose and xylose) [1]: little or no effect | metyrapone as substrate [1]: acceptable substrate | activity on compounds with a single keto or aldo group such as acetaldehyde and pyridine-3-aldehyde ([1]; comparison of Reductase 1 with Reductase 2): higher activity than Reductase 2 | activity on 2-oxoaldehydes such as methylglyoxal and 3-deoxyglucosone ([1]; substrates methylglyoxal, 3-deoxyglucosone): acted on | change in the area of the LC18 peak ([2]; 0.1 mM NADPH, relative to untreated control beer): significant decrease | decrease in the LC18 peak compared with Reductase 2 [2]: larger decrease
